Key:
[1] = biological target: T1, recombinant extracellular domain of mouse PD-1 (Sino Biological) (mouse, UniProt Q02242 25-169); assay: binding ELISA titration on recombinant protein (FIG. 3A)
T1 construct: extracellular domain; Coated on ELISA plates at 1 ug/mL; also called mPD-1; recombinant mouse PD-1
T1 sequence (looked up): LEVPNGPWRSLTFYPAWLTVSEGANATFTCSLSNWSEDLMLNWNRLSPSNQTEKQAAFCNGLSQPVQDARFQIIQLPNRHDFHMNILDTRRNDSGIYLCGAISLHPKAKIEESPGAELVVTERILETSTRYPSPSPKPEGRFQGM

[2] = biological target: T2, mouse CLEC9A on cells (HEK293 cells stably overexpressing mCLEC9A; cDC1 among mouse splenocytes) (mouse, UniProt Q8BRU4 1-238); assay: dual-binding FACS doublet assay, 1:1 mix of CFSE/CellTrace-stained HEK293 cells expressing each target (FIG. 4A)
T2 construct: whole, on cells
T2 sequence (looked up): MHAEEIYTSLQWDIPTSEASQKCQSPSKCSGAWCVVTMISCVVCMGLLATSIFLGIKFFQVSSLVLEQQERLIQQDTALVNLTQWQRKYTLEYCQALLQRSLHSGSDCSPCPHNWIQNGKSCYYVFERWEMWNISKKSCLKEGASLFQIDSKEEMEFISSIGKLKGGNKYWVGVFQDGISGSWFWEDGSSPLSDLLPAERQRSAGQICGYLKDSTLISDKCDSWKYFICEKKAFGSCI

[3] = biological target: T3, mouse PD-1 on cells (HEK293 cells stably overexpressing mPD-1; PD-1+ CD8+ OT-1 T cells) (mouse, UniProt Q02242 25-288); assay: as above
T3 construct: whole, on cells; also called HEK293-mPD-1
T3 sequence (looked up): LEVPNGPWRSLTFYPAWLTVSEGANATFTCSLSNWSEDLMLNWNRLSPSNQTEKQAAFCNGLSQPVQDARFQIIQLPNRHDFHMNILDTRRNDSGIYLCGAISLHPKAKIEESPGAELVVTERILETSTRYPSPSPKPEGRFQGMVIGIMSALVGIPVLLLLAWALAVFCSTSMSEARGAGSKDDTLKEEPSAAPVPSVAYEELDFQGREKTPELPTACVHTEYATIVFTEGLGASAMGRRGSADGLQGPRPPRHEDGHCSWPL

[4] = biological target: T1, recombinant extracellular domain of …; assay: ELISA on recombinant mouse PD-1 (FIG. 3A)
[5] = biological target: T4, mouse XCR1 on cells (HEK293 cells stably overexpressing mXCR1; cDC1 among mouse splenocytes) (mouse, UniProt Q9R0M1 1-322); assay: FACS binding titration on HEK293-mXCR1 cells (FIG. 3B)
T4 construct: whole, on cells
T4 sequence (looked up): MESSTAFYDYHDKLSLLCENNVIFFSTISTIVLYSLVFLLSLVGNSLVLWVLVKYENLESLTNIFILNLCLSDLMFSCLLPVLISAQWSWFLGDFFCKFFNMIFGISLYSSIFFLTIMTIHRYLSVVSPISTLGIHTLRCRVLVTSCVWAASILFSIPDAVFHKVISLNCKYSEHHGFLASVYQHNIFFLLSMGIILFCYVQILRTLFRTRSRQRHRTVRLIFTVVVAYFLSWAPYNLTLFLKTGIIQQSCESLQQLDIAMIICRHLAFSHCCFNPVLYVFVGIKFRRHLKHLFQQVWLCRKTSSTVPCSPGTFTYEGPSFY

Measured: binding result

B1: PD-1/CLEC9A BiSE (bispecific immune synapse engager; anti-mouse PD-1 clone RMP1-14 arm x anti-mouse CLEC9A clone 10B4 arm) (bispecific antibody)
heavy 1: not shown
light 1: DIVMTQGTLPNPVPSGESVSITCRSSKSLLYSDGKTYLNWYLQRPGQSPQLLIYWMSTRASGVSDRFSGSGSGTDFTLKISGVEAEDVGIYYCQQGLEFPTFGGGTKLELERTVAAPSVFIFPPSDEQLKSGTASVVCLLNNFYPREAKVQWKVDNALQSGNSQESVTEQDSKDSTYSLSSTLTLSKADYEKHKVYACEVTHQGLSSPVTKSFNRGEC
heavy 2: QIVESGGGLVQPKESLKISCTASGFTFSNAAIYWVRQTPGKGLEWVGRIRTRPSKYATDYADSVRGRFTISRDDSKSMVYLQMDNLRTEDTAMYYCTPRATEDVPFYWGQGVMVTVSSASVAAPSVFIFPPSDEQLKSGTASVVCLLNNFYPREAKVQWKVDNALQSGNSQESVTEQDSKDSTYSLSSTLTLSKADYEKHKVYACEVTHQGLSSPVTKSFNRGECDRSEPKSCDKTHTCPPCPAPELLGGPSVFLFPPKPKDTLMISRTPEVTCVVVDVSHEDPEVKFNWYVDGVEVHNAKTKPREEQYASTYRVVSVLTVLHQDWLNGKEYKCKVSNKALPAPIEKTISKAKGQPREPQVCTLPPSREEMTKNQVSLSCAVKGFYPSDIAVEWESNGQPENNYKTTPPVLDSDGSFFLVSKLTVDKSRWQQGNVFSCSVMHEALHNHYTQKSLSLSPGKSAWSHPQFEK
light 2: DIVMTQTPSSQAVSAGEKVTMNCKSSQSVLYDENKKNYLAWYQQKSGQSPKLLIYWASTGESGVPDRFIGSGSGTDFTLTISSVQAEDLAVYYCQQYYDFPPTFGGGTKLELKSSASTKGPSVFPLAPSSKSTSGGTAALGCLVKDYFPEPVTVSWNSGALTSGVHTFPAVLQSSGLYSLSSVVTVPSSSLGTQTYICNVNHKPSNTKVDKKVEPKSC
notes: Knobs-into-holes, CrossMab (CH1-CL swap on the DC arm), Fc N297A, human IgG1/kappa backbone; copies: 1 + 1 + 1 + 1
binds: [1] | [2] | [3]

B2: PD-1/XCR1 BiSE (bispecific immune synapse engager; anti-mouse PD-1 clone RMP1-14 arm x anti-mouse XCR1 clone MARX10 arm) (bispecific antibody)
heavy 1: not shown
light 1: DIVMTQGTLPNPVPSGESVSITCRSSKSLLYSDGKTYLNWYLQRPGQSPQLLIYWMSTRASGVSDRFSGSGSGTDFTLKISGVEAEDVGIYYCQQGLEFPTFGGGTKLELERTVAAPSVFIFPPSDEQLKSGTASVVCLLNNFYPREAKVQWKVDNALQSGNSQESVTEQDSKDSTYSLSSTLTLSKADYEKHKVYACEVTHQGLSSPVTKSFNRGEC
heavy 2: QVQLQQPGAELVKPGASVKLSCKASGYTFTNYWIHWMKQRPGQGLEWIGMIHPNSDNTKYNEKFKAKAILTVDKSSSTAYMQLSSLTSEDSAVYYCARFANDGAYWGQGTLVTVSSASVAAPSVFIFPPSDEQLKSGTASVVCLLNNFYPREAKVQWKVDNALQSGNSQESVTEQDSKDSTYSLSSTLTLSKADYEKHKVYACEVTHQGLSSPVTKSFNRGECDRSEPKSCDKTHTCPPCPAPELLGGPSVFLFPPKPKDTLMISRTPEVTCVVVDVSHEDPEVKFNWYVDGVEVHNAKTKPREEQYASTYRVVSVLTVLHQDWLNGKEYKCKVSNKALPAPIEKTISKAKGQPREPQVCTLPPSREEMTKNQVSLSCAVKGFYPSDIAVEWESNGQPENNYKTTPPVLDSDGSFFLVSKLTVDKSRWQQGNVFSCSVMHEALHNHYTQKSLSLSPGKSAWSHPQFEK
light 2: DVVVTQTPLSLPVSLGDPASISCKSSQSLVHSNGNTYLHWYLQKPGQSPKLLIYKISNRFSGVPDRFSGSGSGTDFTLKISRVEAEDLGVYFCSQNTHVPYTFGGGTKLEIKSSASTKGPSVFPLAPSSKSTSGGTAALGCLVKDYFPEPVTVSWNSGALTSGVHTFPAVLQSSGLYSLSSVVTVPSSSLGTQTYICNVNHKPSNTKVDKKVEPKSC
notes: as for B1
binds: [4] | [5] | [3]

— patent US20240376213A1 (YEDA RESEARCH AND DEVELOPMENT, published 2024)
